Results reported in patent US20190055322A1.
Several values for one entry are separate records, joined by “and”; a condition that tells them apart may be missing. Equal entries are not always repeated.

Target: different PcrV variants and reference strain PAO1 (23 PcrV sequence variants, GST-PcrV-His6)

B1: Nanobody 259 (1E11-40GS-5H01) (VHH)
chain: EVQLVESGGGLVQPGGSLRLSCAASGSTRSVNPMAWFRQAPGRQREWVATISRSGYATYADSVKGRFTISGDNAKSSVYLQMNSLKPEDTAVYYCVTGTYWGQGTLVTVSSGGGGSGGGGSGGGGSGGGGSGGGGSGGGGSGGGGSGGGGSEVQLVESGGGLVQPGGSLRLSCAASGSTLDYYAIGWFRQAPGKEREGVSCTSNSGSTYYGGSVKGRFTASRDNAKNTVYLQMNSLRPEDTAVYYCVATIGCATLGGTLDVQRYYYRGQGTLVTVSS
In the case of B1, the EC50 is reported as 0.01 nM and 0.02 nM.

B2: Nanobody 285 (13F07-40GS-2B02) (VHH)
chain: EVQLVESGGGLVQAGGSLRLSCAASGNTFSTNPMYWYRQAEGKQRELVASISSRGITNYADSVRGRFSISRDNTKDTVYLQMNSLKPEDTAVYYCRLASLSSGTVYWGKGTLVTVSSGGGGSGGGGSGGGGSGGGGSGGGGSGGGGSGGGGSGGGGSEVQLVESGGGLVQPGDSLRLSCAASGRILSINNMVWYRQAPGKQRELVAHITSSGSTGYADSVKGRFTISRDNAKNTFYLQMTNLNPEDTAVYYCNCWVSSDSNAPLKNYWGQGTLVTVSS
B2 gave an EC50 of 0.1 nM.

B3: Nanobody 335 (5H01-40GS-1E11) (VHH)
chain: EVQLVESGGGLVQPGGSLRLSCAASGSTLDYYAIGWFRQAPGKEREGVSCTSNSGSTYYGGSVKGRFTASRDNAKNTVYLQMNSLRPEDTAVYYCVATIGCATLGGTLDVQRYYYRGQGTLVTVSSGGGGSGGGGSGGGGSGGGGSGGGGSGGGGSGGGGSGGGGSEVQLVESGGGLVQPGGSLRLSCAASGSTRSVNPMAWFRQAPGRQREWVATISRSGYATYADSVKGRFTISGDNAKSSVYLQMNSLKPEDTAVYYCVTGTYWGQGTLVTVSS
For B3, the EC50 was 0.07 nM and 0.09 nM.

B4: Nanobody 271 (7C10-40GS-14E10) (VHH)
chain: EVQLVESGGGLVQAGGSLRLSCTASGRTLSSYTMGWFRQAPGTEREFVAAMTRSGFNTYYADSVKGRFTISRDSTENTMALQMSSLKPEDTAVYYCTAGRGLTSYRADYWGQGTLVTVSSGGGGSGGGGSGGGGSGGGGSGGGGSGGGGSGGGGSGGGGSEVQLVESGGGLVQPGGSLRLSCAASGRIFSINTMGWYRQAPGKQRELVAGVTINAITNYADSVKGRFTISRDNAKNTVWLQMNSLKPEDTAVYYCHAWARSSGSAPYSQNWGQGTLVTVSS
For B4, the EC50 was 0.06 nM and 0.1 nM.

B5: Nanobody 277 (5H01-40GS-11B09) (VHH)
chain: EVQLVESGGGLVQPGGSLRLSCAASGSTLDYYAIGWFRQAPGKEREGVSCTSNSGSTYYGGSVKGRFTASRDNAKNTVYLQMNSLRPEDTAVYYCVATIGCATLGGTLDVQRYYYRGQGTLVTVSSGGGGSGGGGSGGGGSGGGGSGGGGSGGGGSGGGGSGGGGSEVQLVESGGGLVQAGGSLRLSCAASRLTFNHYNMGWFRQAPGKERERVAEVTWSGDKIYYVDSVKGRFTISRDNTPNPVYLYLQMNSLKPEDTAVYYCATAPRGLPYANGYWGQGTLVTVSS
For B5, the EC50 was 0.07 nM and 0.1 nM.

B6: Nanobody 257 (13F07-40GS-2B10) (VHH)
chain: EVQLVESGGGLVQAGGSLRLSCAASGNTFSTNPMYWYRQAEGKQRELVASISSRGITNYADSVRGRFSISRDNTKDTVYLQMNSLKPEDTAVYYCRLASLSSGTVYWGKGTLVTVSSGGGGSGGGGSGGGGSGGGGSGGGGSGGGGSGGGGSGGGGSEVQLVESGGGLVQPGGSLRLSCAASGSIFSINNMGWYRQAPGKQRELVTVVTSNLITTYADSVKGRFTISRDNAKNTVYLQMNSLKPEDTAVYYCNAWARSVGSVPYSQFWGQGTLVTVSS
B6 was tested, and the EC50 was 0.07 nM and 0.09 nM.

B7: Nanobody 275 (2G09-40GS-5H01) (VHH)
chain: EVQLVESGGGLVQPGGSLRLSCAASGSFGDNYELYAMTWFRQAPGERRDFVASVTGDGSTSYADSVKDRFTISRDNAKKLMYLQMNSLKPEDTAVYYCRLLNYWGQGTLVTVSSGGGGSGGGGSGGGGSGGGGSGGGGSGGGGSGGGGSGGGGSEVQLVESGGGLVQPGGSLRLSCAASGSTLDYYAIGWFRQAPGKEREGVSCTSNSGSTYYGGSVKGRFTASRDNAKNTVYLQMNSLRPEDTAVYYCVATIGCATLGGTLDVQRYYYRGQGTLVTVSS
In the case of B7, the EC50 is reported as 0.6 nM and 0.9 nM.

B8: Nanobody 261 (5H01-40GS-2B10) (VHH)
chain: EVQLVESGGGLVQPGGSLRLSCAASGSTLDYYAIGWFRQAPGKEREGVSCTSNSGSTYYGGSVKGRFTASRDNAKNTVYLQMNSLRPEDTAVYYCVATIGCATLGGTLDVQRYYYRGQGTLVTVSSGGGGSGGGGSGGGGSGGGGSGGGGSGGGGSGGGGSGGGGSEVQLVESGGGLVQPGGSLRLSCAASGSIFSINNMGWYRQAPGKQRELVTVVTSNLITTYADSVKGRFTISRDNAKNTVYLQMNSLKPEDTAVYYCNAWARSVGSVPYSQFWGQGTLVTVSS
In the case of B8, the EC50 is reported as 0.06 nM and 0.07 nM.

B9: Nanobody 319 (13F07-40GS-6B05) (VHH)
chain: EVQLVESGGGLVQAGGSLRLSCAASGNTFSTNPMYWYRQAEGKQRELVASISSRGITNYADSVRGRFSISRDNTKDTVYLQMNSLKPEDTAVYYCRLASLSSGTVYWGKGTLVTVSSGGGGSGGGGSGGGGSGGGGSGGGGSGGGGSGGGGSGGGGSEVQLVESGGGLVQPGGSLRLSCAASGSIFSINTMGWYRQAPGKQRELVSTITSNLVPHYADSVQGRFTISRDNARNTVYLQMNSLKPQDTAHYYCNAWARSSGATPYTNYWGQGTLVTVSS
In the case of B9, the EC50 is reported as 0.08 nM and 0.1 nM.
